From patent US20100041596A1
Blank lines part the entries; values can stand above or below the substance they belong to.

Tests used:
[1] = target: p60ΔCD-HA T61A (Homo sapiens (Human)) (UniProt P19438); experiment: cell staining, % positive cells / % HA positive cells, p60ΔCD set at 1
[2] = target: p60ΔCD-HA K19E (Homo sapiens (Human)) (UniProt P19438); experiment: as above
[3] = target: p60ΔCD-HA N66F (Homo sapiens (Human)) (UniProt P19438); experiment: as above
[4] = target: p60ΔCD-HA DT49/50AA (Homo sapiens (Human)) (UniProt P19438); experiment: as above
[5] = target: p60ΔCD-HA K32A (Homo sapiens (Human)) (UniProt P19438); experiment: as above
[6] = target: p60ΔCD-HA L112E (Homo sapiens (Human)) (UniProt P19438); experiment: as above
[7] = target: p60ΔCD-HA E57A (Homo sapiens (Human)) (UniProt P19438); experiment: as above
[8] = target: p60ΔCD-HA KY19/20AA (Homo sapiens (Human)) (UniProt P19438); experiment: as above
[9] = target: p60ΔCD-HA Q24A (Homo sapiens (Human)) (UniProt P19438); experiment: as above
[10] = target: p6055-211 (Homo sapiens (Human)) (UniProt P19438); experiment: as above
[11] = target: p60ΔCD-HA (Homo sapiens (Human)) (UniProt P19438); experiment: as above
[12] = target: p60ΔCD-HA R77A (Homo sapiens (Human)) (UniProt P19438); experiment: as above
[13] = target: p60ΔCD-HA W108T (Homo sapiens (Human)) (UniProt P19438); experiment: as above
[14] = target: p60ΔCD-HA T61A (Homo sapiens (Human)) (UniProt P19438); experiment: cell staining, normalized to HA staining, p60ΔCD set at 1
[15] = target: p60ΔCD-HA K19E (Homo sapiens (Human)) (UniProt P19438); experiment: as above
[16] = target: p60ΔCD-HA N66F (Homo sapiens (Human)) (UniProt P19438); experiment: as above
[17] = target: p60ΔCD-HA DT49/50AA (Homo sapiens (Human)) (UniProt P19438); experiment: as above
[18] = target: p60ΔCD-HA K32A (Homo sapiens (Human)) (UniProt P19438); experiment: as above
[19] = target: p60ΔCD-HA L112E (Homo sapiens (Human)) (UniProt P19438); experiment: as above
[20] = target: p60ΔCD-HA E57A (Homo sapiens (Human)) (UniProt P19438); experiment: as above
[21] = target: p60ΔCD-HA KY19/20AA (Homo sapiens (Human)) (UniProt P19438); experiment: as above
[22] = target: p60ΔCD-HA Q24A (Homo sapiens (Human)) (UniProt P19438); experiment: as above
[23] = target: p6055-211 (Homo sapiens (Human)) (UniProt P19438); experiment: as above
[24] = target: p60ΔCD-HA (Homo sapiens (Human)) (UniProt P19438); experiment: as above
[25] = target: p60ΔCD-HA R77A (Homo sapiens (Human)) (UniProt P19438); experiment: as above
[26] = target: p60ΔCD-HA W108T (Homo sapiens (Human)) (UniProt P19438); experiment: as above

MAB225 staining normalized against HA staining (relative to p60ΔCD) [1]: 1.42 | MAB225 staining normalized against HA staining (relative to p60ΔCD) [2]: 1.05 | MAB225 staining normalized against HA staining (relative to p60ΔCD) [3]: 0.67 | MAB225 staining normalized against HA staining (relative to p60ΔCD) [4]: 1.16 | MAB225 staining normalized against HA staining (relative to p60ΔCD) [5]: 0.36 | MAB225 staining normalized against HA staining (relative to p60ΔCD) [6]: 1.31 | MAB225 staining normalized against HA staining (relative to p60ΔCD) [7]: 1.68 | MAB225 staining normalized against HA staining (relative to p60ΔCD) [8]: 0.59 | MAB225 staining normalized against HA staining (relative to p60ΔCD) [9]: 1.06 | MAB225 staining normalized against HA staining (relative to p60ΔCD) [10]: 0.87 | MAB225 staining normalized against HA staining (relative to p60ΔCD) [11]: 1 | MAB225 staining normalized against HA staining (relative to p60ΔCD) [12]: 1.06 | MAB225 staining normalized against HA staining (relative to p60ΔCD) [13]: 1.32
Substance: p60-specific monoclonal antibody clone MAB225 (R&D Systems)

clone 4.12 staining normalized against HA staining (relative to p60ΔCD) [14]: 1.28 | clone 4.12 staining normalized against HA staining (relative to p60ΔCD) [15]: 1.07 | clone 4.12 staining normalized against HA staining (relative to p60ΔCD) [16]: 0.04 | clone 4.12 staining normalized against HA staining (relative to p60ΔCD) [17]: 0.96 | clone 4.12 staining normalized against HA staining (relative to p60ΔCD) [18]: 0.01 | clone 4.12 staining normalized against HA staining (relative to p60ΔCD) [19]: 1.27 | clone 4.12 staining normalized against HA staining (relative to p60ΔCD) [20]: 0.04 | clone 4.12 staining normalized against HA staining (relative to p60ΔCD) [21]: 0.14 | clone 4.12 staining normalized against HA staining (relative to p60ΔCD) [22]: 0.97 | clone 4.12 staining normalized against HA staining (relative to p60ΔCD) [23]: 0.02 | clone 4.12 staining normalized against HA staining (relative to p60ΔCD) [24]: 1 | clone 4.12 staining normalized against HA staining (relative to p60ΔCD) [25]: 0.99 | clone 4.12 staining normalized against HA staining (relative to p60ΔCD) [26]: 1.11
Substance: p60-specific monoclonal antibody clone 4.12 (Zymed)
